Patent publication US20220193237A1 (Bristol-Myers Squibb, published 2022)
Positions count from the first letter of the chain named. Numbers in names are those of the source. Each block holds one binder with its values, some of them ahead of it.

How the values were obtained:
[1] = target: T1, human CTLA-4 on 58 α-β-CTLA-4/CD3 ζ cells (human; mouse (mCD3ζ)); experiment: cell-based or functional assay
[2] = target: T1, human CTLA-4 on 58 α-β-CTLA-4/CD3 ζ …; experiment: cell-based or functional assay; remark: listed apart in the source
[3] = target: T1, human CTLA-4 on 58 α-β-CTLA-4/CD3 ζ …; experiment: flow cytometry, non-fucosylated IgG1 on 58αβ-CTLA4/mCD3ζ cells, pH 6.2
Procedure: (§1) Antibodies were titrated from 100 μg/mL at a 1:4 dilution across 12 points in pH-specific buffers and incubated for 30-60 minutes. Buffers contained HBSS, 2% FBS^HI, 0.02% sodium azide, 2 mM EDTA, and sodium phosphate buffer (pH 5.4). Sodium phosphate buffer was added until desired pH was reached (7.2, 6.7, 6.2). Approximately 3e5 cells/well were tested for each cell line. […] Detection was done with a monovalent anti-hKappa secondary nanobody conjugated to Alexa647 and used at a dilution of 1:2000. Cells were fixed with BD Fix Solution I for 30 minutes prior to resuspension in pH-specific buffers and reading on the cytometer (BD Fortessa).

[4] = target: T1, human CTLA-4 on 58 α-β-CTLA-4/CD3 ζ …; experiment: flow cytometry, non-fucosylated IgG1 on 58αβ-CTLA4/mCD3ζ cells, pH 6.7
Procedure: as §1

[5] = target: T1, human CTLA-4 on 58 α-β-CTLA-4/CD3 ζ …; experiment: flow cytometry, non-fucosylated IgG1 on 58αβ-CTLA4/mCD3ζ cells, pH 7.2
Procedure: as §1

monomeric human CTLA-4 [6] = target: T2, monomeric human CTLA-4 (human, UniProt P16410 36-161, limits assumed); experiment: SPR, captured Fab, pH 6.0
T2 construct: Soluble monomeric analyte in SPR; also called huCTLA-4
T2 sequence: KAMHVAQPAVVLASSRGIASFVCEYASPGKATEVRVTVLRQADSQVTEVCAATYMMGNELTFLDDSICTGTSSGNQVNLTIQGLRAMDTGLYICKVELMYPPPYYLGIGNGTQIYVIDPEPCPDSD
Procedure: (§2) Binding of selected variants to human CTLA-4 was determined essentially as described in Example 3. […] Nomenclature and sequences for these antibodies is provided at Tables 6 and 7, and in the sequence listing as summarized at Table 8.
(§3) Monomeric human CTLA-4 was flowed as analyte with up to 2 μM top concentration. Between cycles, the capture surface was regenerated with 75 mM phosphoric acid. Experiments were run on a BIACORE® T200 instrument at 37° C. Running buffers were HEPES buffered saline for pH 7.4 experiments and Bis-Tris buffered saline for lower pH experiments. […] Double referenced sensorgrams were fitted to a 1:1 Langmuir binding model with mass transport to determine equilibrium dissociation constants (KD), as well as association (kₐ) and dissociation (kd) rate constants where appropriate.

monomeric human CTLA-4 [7] = target: T2, monomeric human CTLA-4; experiment: SPR, captured Fab, pH 7.4
Procedure: as §2, §3

monomeric human CTLA-4 [8] = target: T2, monomeric human CTLA-4; experiment: SPR, captured Fab, pH 6.0 vs 7.4
Procedure: as §2, §3

[9] = target: T1, human CTLA-4 on 58 α-β-CTLA-4/CD3 ζ …; experiment: flow cytometry (APC mean FI), Fab on 58αβ-CTLA4/mCD3ζ cells, pH 6.2
Procedure: as §1
The experimental protocol was the same as used to obtain the data of FIGS. 16A-C.

monomeric cyno CTLA-4 = target: T3, monomeric cyno CTLA-4 (cynomolgus macaque (Macaca fascicularis), UniProt G7PL88 36-161); experiment: SPR, Fab, monomeric cyno CTLA-4 as analyte; koff (s^-1, linear axis 0 to 0.3) plotted against pH
T3 construct: also called CTLA-4 from the cynomolgus macaque Macaca fascicularis
T3 sequence: T2 sequence with S14N, I18T, L106M
Procedure: The pH dependence of binding of selected antibodies of the present invention to human CTLA-4 and cyno CTLA-4 was measured by surface plasmon resonance (SPR) spectroscopy, essentially as described in Example 3. Briefly, antibodies were studied as monovalent Fab fragments. Anti-human kappa polyclonal capture antibody (Southern Biotech, Ala. USA) was immobilized on a ethylenediamine-blocked CM4 sensor chip in a Biacore T200 surface plasmon resonance system. Fab fragments of selected antibodies of the present invention were then captured on one flow cell each. […] Running buffer was 20 mM BisTris, 150 mM NaCl, 0.05% Tween-20, 1 g/L BSA, at a pH ranging from 5.5 to 7.4 in 0.1-0.2 pH unit intervals (12 total). The surface was regenerated with 1/200 H₃PO₄ between cycles. […] Where required, the Rₘₐₓ was fixed by calculating expected binding based on capture level and apparent activity from other fits for the same Fab.

monomeric human CTLA-4 [10] = target: T2, monomeric human CTLA-4; experiment: SPR, captured Fab, pH 6.0; remark: listed apart in the source
Procedure: (§4) See Example 3. Antibodies were tested as monovalent Fab fragments to simplify analysis.
as §3

monomeric human CTLA-4 [11] = target: T2, monomeric human CTLA-4; experiment: SPR, captured Fab, pH 7.4; remark: listed apart in the source
Procedure: as §4, §3

monomeric human CTLA-4 [12] = target: T2, monomeric human CTLA-4; experiment: SPR, captured Fab, pH 6.0 vs 7.4; remark: listed apart in the source
Procedure: as §4, §3

monomeric human CTLA-4 [13] = target: T2, monomeric human CTLA-4; experiment: SPR, captured Fab, first experiment of Table 3
Procedure: as §4, §3

monomeric human CTLA-4 [14] = target: T2, monomeric human CTLA-4; experiment: SPR, captured Fab, second experiment of Table 3
Procedure: as §4, §3

monomeric human CTLA-4 [15] = target: T2, monomeric human CTLA-4; experiment: SPR, captured Fab, pH 6.0, second experiment
Procedure: as §4, §3

monomeric human CTLA-4 [16] = target: T2, monomeric human CTLA-4; experiment: SPR, captured Fab, pH 7.4, second experiment
Procedure: as §4, §3

monomeric human CTLA-4 [17] = target: T2, monomeric human CTLA-4; experiment: SPR, captured Fab, pH 6.0 vs 7.4, second experiment
Procedure: as §4, §3

- IC50 (read off the curve), mIL-2 secretion, 58αβ-hCTLA/mCD3ζ:rhB7-1 blocking assay, 18 h, pH 7.0 [1]: ~4 nM
- IC50 (read off the curve), mIL-2 secretion, 58αβ-hCTLA/mCD3ζ:rhB7-1 blocking assay, 18 h, pH 6.8 [2]: ~2 nM
- Cmax (MFI) [3]: 107000 MFI
- EC50 [3]: 2.6 nM
- Cmax (MFI) [4]: 110000 MFI
- EC50 [4]: 3.45 nM
- Cmax (MFI) [5]: 107000 MFI
- EC50 [5]: 3.94 nM
B1: ipi.105, non-fucosylated IgG1 (antibody, V domains shown)
VH: QVQLVESGGGVVQPGRSLRLSCAASGFTFSHYTMHWVRQAPGKGLEWVTFISYDGHNKYYADSVKGRFTISRDNSKNTLYLQMNSLRAEDTAIYYCARTGWLGPFDYWGQGTLVTVSS
VL: EIVLTQSPGTLSLSPGERATLSCRASQEVGESELAWYQQKPGQAPRLLIYGAFSRATGIPDRFSGSGSGTDFTLTISRLEPEDFAVYYCQQYGSSPWTFGQGTKVEIKR
modifications: non-fucosylated N-linked glycan
notes: Non-fucosylated full-length human IgG1; also called Ipi.105 IgG1-NF

- Kd (monomeric human CTLA-4 [6]): 2.5 nM
- kon (monomeric human CTLA-4 [6]): 1.3e+06 M⁻¹ s⁻¹
- t1/2 (monomeric human CTLA-4 [6]): 217 s
- Kd (monomeric human CTLA-4 [7]): 390 nM
- KD 7.4/6 (APBP) (monomeric human CTLA-4 [8]): 76
- EC50 (read off the curve) [9]: ~0.2 µg/mL
- binding result (monomeric cyno CTLA-4): binds
B2: ipi.105 Fab (Fab, V domains shown)
VH: B1 VH
VL: B1 VL
notes: Tested as monovalent Fab

- Kd (monomeric human CTLA-4 [10]): 14 nM
- koff (monomeric human CTLA-4 [10]): 0.015 s⁻¹
- kon (monomeric human CTLA-4 [10]): 1e+06 M⁻¹ s⁻¹
- Kd (monomeric human CTLA-4 [11]): 19 nM
- koff (monomeric human CTLA-4 [11]): 0.016 s⁻¹
- kon (monomeric human CTLA-4 [11]): 850000 M⁻¹ s⁻¹
- Kd (monomeric human CTLA-4 [6]): 14 nM
- kon (monomeric human CTLA-4 [6]): 1e+06 M⁻¹ s⁻¹
- t1/2 (monomeric human CTLA-4 [6]): 46 s
- Kd (monomeric human CTLA-4 [7]): 19 nM
- kon (monomeric human CTLA-4 [7]): 850000 M⁻¹ s⁻¹
- t1/2 (monomeric human CTLA-4 [7]): 43 s
- KD 7.4/6 (APBP) (monomeric human CTLA-4 [12]): 1.4
- ka 6/7.4 (monomeric human CTLA-4 [12]): 1.2
- kd 7.4/6 (monomeric human CTLA-4 [12]): 1.1
- KD 7.4/6 (APBP) (monomeric human CTLA-4 [8]): 1.3
- ka 6/7.4 (monomeric human CTLA-4 [8]): 1.2
- t1/2 6/7.4 (monomeric human CTLA-4 [8]): 1.1
- ratio of KD (7.4/6.0) normalized to the ratio of ipilimumab (monomeric human CTLA-4 [13]): 1.4
B3: ipi.17 Fab (Fab, V domains shown)
VH: B1 VH with H31S, H56N
VL: not shown
notes: Tested as monovalent Fab; also called S28E

- ratio of KD (7.4/6.0) normalized to the ratio of ipilimumab (monomeric human CTLA-4 [14]): 4.1
- Kd (monomeric human CTLA-4 [15]): 7.2 nM
- koff (monomeric human CTLA-4 [15]): 0.006 s⁻¹
- kon (monomeric human CTLA-4 [15]): 830000 M⁻¹ s⁻¹
- Kd (monomeric human CTLA-4 [16]): 24 nM
- koff (monomeric human CTLA-4 [16]): 0.0099 s⁻¹
- kon (monomeric human CTLA-4 [16]): 420000 M⁻¹ s⁻¹
- KD 7.4/6 (APBP) (monomeric human CTLA-4 [17]): 3.3
- ka 6/7.4 (monomeric human CTLA-4 [17]): 2
- kd 7.4/6 (monomeric human CTLA-4 [17]): 1.7
B4: ipi.24 Fab (Fab, V domains shown)
VH: B1 VH with H31S, H56N
VL: not shown
notes: Tested as monovalent Fab
